Measurements as given in patent US11541126B1, “Anti-ASGR1 antibody TLR8 agonist comprising conjugates and uses thereof” (Silverback Therapeutics, Inc., priority 2020, dated 2023).
Where a chain is given by its changes, count along the chain named. Names and notes keep the numbering of the source.

T1: HepG2 cells (which express ASGR1) (Homo sapiens, UniProt P07306)
T1 construct: endogenous in cells; host or cells: HepG2
T1 sequence (P07306 1-291): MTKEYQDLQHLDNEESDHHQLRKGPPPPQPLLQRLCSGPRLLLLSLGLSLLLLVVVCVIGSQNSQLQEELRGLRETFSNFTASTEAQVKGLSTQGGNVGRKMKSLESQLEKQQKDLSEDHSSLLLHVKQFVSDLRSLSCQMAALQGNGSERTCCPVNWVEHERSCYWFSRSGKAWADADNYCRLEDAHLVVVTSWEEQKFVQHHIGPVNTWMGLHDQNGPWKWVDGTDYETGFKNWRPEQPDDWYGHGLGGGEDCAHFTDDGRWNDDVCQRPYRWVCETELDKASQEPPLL

B1: hzG2D-31: humanized G2D clone; "G2D VL region ... of clones 1-16, 19-21, 26-29, 31, and 33 ... grafted into the human germline sequence VKI-L1 with JK4" (antibody, V domains shown)
VH: QVQLVQSGAEVKKPGASVKVSCKASGYTFTGYYMHWVRQAPGQRLEWMGRINPNNGATNYNQNFKDKASLTVDTSASTAYMEFHSLRSEDTAVYYCTSVNFYYWGQGTTVTVSS
VL: DIQMTQSPSSLSASVGDRVTITCKASQVINSYLSWFQQKPGKAPKSLIYRANTLVDGVPSRFSGSGSGTDFTLTISSLQPEDFATYYCLQYAEFPYTFGGGTKVEIK
modifications: Synthetic sequence hzG2.50D VH R66K, V67A, T68S, I69L, R71V, L82F, S82aH, A93T, R94S; Synthetic sequence hzG2D VLa
B2: hzG2D-1: humanized G2D clone; "G2D VL region ... of clones 1-16, 19-21, 26-29, 31, and 33 ... grafted into the human germline sequence VKI-L1 with JK4" (antibody, V domains shown)
VH: B1 VH with K67R, A68V, S69T, L70I, V72R, F83L, H84S, T97A, S98R, V110L
VL: B1 VL
modifications: Synthetic sequence hzG2D VH V109L; Synthetic sequence hzG2D VLa
B3: hzG2D-32: humanized G2D clone; "G2D VL region ... of clones 22, 23, 30, 32, and 34-37 ... grafted into the human germline sequence VKI-O2 with JK4" (antibody, V domains shown)
VH: B1 VH
VL: B1 VL with F36Y, S46L
modifications: Synthetic sequence hzG2.50D VH R66K, V67A, T68S, I69L, R71V, L82F, S82aH, A93T, R94S; Synthetic sequence hzG2D VLb

Biological target: T1, HepG2 cells (which express ASGR1)
Test: Guava HepG2 cell binding screen of humanized anti-ASGR1 clones
Set-up: unit not given here
Details: humanized G2D clones (Table 5); two numbers per cell, not explained

Row | Guava HepG2 Screen | Molecule
1 | 168/95 | B1
2 | 32/19 | B2
3 | 167/103 | B3
